Measurements from patent publication US20040171549A1.

Molecular target: integrin alpha v beta 3 present at the surface of the endothelial cells (CPAE) (bovine (calf pulmonary artery endothelial cells)) (UniProt P80746)
Assay: cell-based or functional assay

Sequence of UniProt P80746 (P80746 31-1048): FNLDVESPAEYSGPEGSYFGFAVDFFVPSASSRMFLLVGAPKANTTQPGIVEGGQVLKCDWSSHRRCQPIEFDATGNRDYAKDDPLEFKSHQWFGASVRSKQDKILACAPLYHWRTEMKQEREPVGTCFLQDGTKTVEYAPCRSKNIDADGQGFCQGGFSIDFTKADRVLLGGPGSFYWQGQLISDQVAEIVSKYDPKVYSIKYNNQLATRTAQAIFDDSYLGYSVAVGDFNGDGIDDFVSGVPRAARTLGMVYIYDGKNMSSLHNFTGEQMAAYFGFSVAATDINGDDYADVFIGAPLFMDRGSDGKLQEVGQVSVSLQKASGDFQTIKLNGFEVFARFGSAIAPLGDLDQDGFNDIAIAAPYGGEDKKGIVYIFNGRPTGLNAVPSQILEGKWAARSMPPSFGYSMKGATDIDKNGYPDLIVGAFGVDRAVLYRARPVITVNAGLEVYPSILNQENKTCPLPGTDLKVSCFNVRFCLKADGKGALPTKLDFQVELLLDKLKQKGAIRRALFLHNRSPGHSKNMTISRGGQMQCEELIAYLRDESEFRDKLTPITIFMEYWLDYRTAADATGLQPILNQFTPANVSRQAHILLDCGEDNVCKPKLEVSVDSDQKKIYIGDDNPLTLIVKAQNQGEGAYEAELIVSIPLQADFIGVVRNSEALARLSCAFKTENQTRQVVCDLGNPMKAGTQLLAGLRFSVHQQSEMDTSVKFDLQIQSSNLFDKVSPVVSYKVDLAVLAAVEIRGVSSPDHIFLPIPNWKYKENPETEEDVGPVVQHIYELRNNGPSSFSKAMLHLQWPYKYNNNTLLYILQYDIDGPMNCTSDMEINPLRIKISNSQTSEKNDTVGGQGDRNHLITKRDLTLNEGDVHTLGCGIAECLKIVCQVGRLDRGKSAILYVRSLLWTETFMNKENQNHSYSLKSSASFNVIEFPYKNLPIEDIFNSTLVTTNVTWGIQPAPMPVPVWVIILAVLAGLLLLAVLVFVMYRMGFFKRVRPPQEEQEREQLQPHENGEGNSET

**Q.** Which inhibition of the adhesion of the cells on fibrinogen does the source give for “1.4-kDa fragment of AMEP constituted of 12 amino acids with the sequence RGDC (peptide)” here?
**A.** 50%

**Q.** What about the inhibition of the adhesion of the cells on vitronectin of the same substance?
**A.** 49%
